Results on 21 sequences are retold here after the Immune Epitope Database (IEDB).

The target in experiment [1] is HLA-B*51:01. The experiment in a line: IEDB peptide-MHC binding, purified MHC/competitive/radioactivity; filed as Kd, often an IC50 or EC50 that approximates it; ≥ and ≤ were set here for values at or beyond the usual limits of such assays. To be noted: source organism: Dengue virus 1 Brazil/97-11/1997.
Experiment [2] addresses HLA-B*45:01. Described as above.
Experiment [3] deals with HLA-B*44:02. The description is as above.
Experiment [4] has as its target HLA-B*40:01. The description is as above.
Experiment [5] addresses HLA-B*40:02. The experiment is described as above.
In experiment [6] the target is HLA-B*18:01. The description is as above.
Experiment [7] concerns the target HLA-B*44:03. Described as above.
For experiment [8], the target named is HLA-B*07:02. The experiment is described as above.
For experiment [9], the target named is HLA-B*35:01. Described as above.
Experiment [10] concerns the target HLA-A*68:02. Described as above.
Experiment [11] addresses HLA-A*02:06. Described as above. To be noted: source organism: Homo sapiens.
For experiment [12], the target named is HLA-B*40:01. As to the kind of experiment: IEDB peptide-MHC binding, purified MHC/direct/fluorescence; filed as Kd, often an IC50 or EC50 that approximates it; ≥ and ≤ were set here for values at or beyond the usual limits of such assays. The conditions noted are these: source organism: Mycobacterium avium subsp. paratuberculosis.
Setting [13] is: source organism: Lymphocytic choriomeningitis virus (strain Armstrong).
[14] abbreviates: source organism: Dengue virus 3 Martinique/1243/1999.
Where [15] appears, read: source organism: Mammarenavirus juninense.
Where [16] appears, read: source organism: Dengue virus 2 Jamaica/1409/1983.
Setting [17] is: source organism: Mammarenavirus machupoense.
[18] abbreviates: source organism: SARS coronavirus Tor2.
[19] abbreviates: source organism: Dengue virus 4 Philippines/H241/1956.
Setting [20] is: source organism: Dengue virus 1 Brazil/97-11/1997.
The mark [21] stands for this setting: source organism: Mammarenavirus brazilense.

pKd: −log10 of the molar value. Where only a bound is given, the exact number is not on record here.

A word on the pKd: it is −log10 of the Kd, conventionally taken in molar units. In the case of PPFGESYIV, in experiment [1], the pKd was 5.01.
Turning to AEILPDTTY, the pKd is 5.91 in [2] (setting [13]); 7.01 in experiment [3] (setting [13]); 5.22 in experiment [4] (setting [13]); 4.85 in experiment [5] (setting [13]); 5.85 in [6] (setting [13]); 7.00 in [7] (setting [13]).
As to RPISEKEENM, the pKd was 6.87 in experiment [8] (setting [14]) and 6.30 in experiment [9] (setting [14]).
Regarding AETGSQGVY, the pKd is 6.68 in experiment [2] (setting [15]); 6.57 in experiment [3] (setting [15]); 4.80 in experiment [4] (setting [15]); 6.20 in experiment [5] (setting [15]); 5.18 in experiment [6] (setting [15]); 6.64 in experiment [7] (setting [15]).
Regarding EVSETQHGTI, the pKd in experiment [10] (setting [14]) is 6.71.
For the sequence EIAETQHGTI, in [10] (setting [16]), the negative logarithm of the Kd (pKd) was 7.00.
In the case of QEKAPDVGEL, the negative-log Kd (pKd) was 5.15 in [2] (setting [17]); 5.63 in experiment [3] (setting [17]); 4.89 in experiment [4] (setting [17]); 5.97 in experiment [5] (setting [17]); not above 4.35 in experiment [6] (setting [17]); not above 4.68 in experiment [7] (setting [17]).
For TEVVGNVIL, the pKd is 4.82 in [2] (setting [18]); 4.82 in experiment [3] (setting [18]); 7.83 in experiment [4] (setting [18]); 6.75 in experiment [5] (setting [18]); 5.23 in [6] (setting [18]); 5.17 in experiment [7] (setting [18]).
For the sequence TVHADTGCAV, in experiment [10] (setting [19]), the pKd is 7.06.
Regarding VPNYNMIIM, the pKd in [1] was 6.06; in [8] (setting [20]), 7.27; in experiment [9] (setting [20]), 7.87.
In the case of HEFVDEFYAY, the negative logarithm of the Kd (pKd) in experiment [2] (setting [18]) is 5.14; in experiment [3] (setting [18]), 5.46; in experiment [4] (setting [18]), 6.08; in experiment [5] (setting [18]), 6.48; in experiment [6] (setting [18]), 7.35; in experiment [7] (setting [18]) it was 7.07.
In the case of TPRMCTREE, the pKd in [8] (setting [16]) was 5.71.
For the sequence KEPQKPLVL, the pKd in experiment [2] (setting [17]) was not above 4.15; in [3] (setting [17]) it was 4.74; in [4] (setting [17]), 4.80; in [5] (setting [17]), 6.40; in experiment [6] (setting [17]) it was not above 4.11; in experiment [7] (setting [17]) it was not above 4.62.
Turning to QLKDKADFCI, the pKd was 4.87 in [10] (source organism: Homo sapiens) and not above 4.49 in experiment [11].
Turning to CEMNHVNSM, the negative-log Kd (pKd) in [2] (setting [21]) is 6.67; in [3] (setting [21]), 6.75; in [4] (setting [21]), 5.53; in experiment [5] (setting [21]), 7.17; in experiment [6] (setting [21]) it was 6.33; in experiment [7] (setting [21]), 6.02.
Regarding SEVAVLYQDV, the negative logarithm of the Kd (pKd) was 6.70 in experiment [2] (setting [18]); 5.95 in experiment [3] (setting [18]); 6.02 in [4] (setting [18]); 6.87 in experiment [5] (setting [18]); 5.51 in experiment [6] (setting [18]); 6.98 in experiment [7] (setting [18]).
With CEKALKYLPI, the pKd is 6.98 in experiment [2] (setting [18]); 6.90 in experiment [3] (setting [18]); 5.16 in [4] (setting [18]); 7.52 in experiment [5] (setting [18]); not above 4.54 in experiment [6] (setting [18]); 5.94 in [7] (setting [18]).
With QECNNMHLST, the negative-log Kd (pKd) in experiment [2] (setting [18]) is 6.20; in [3] (setting [18]) it was 5.25; in [4] (setting [18]), 4.82; in experiment [5] (setting [18]), 6.23; in experiment [6] (setting [18]), not above 4.15; in [7] (setting [18]) it was 5.15.
In the case of KEHKGVGFL, the negative logarithm of the Kd (pKd) in experiment [12] was 7.52.
IPKAYAGPF: the negative logarithm of the Kd (pKd) in [8] (setting [19]) is 8.14; in experiment [9] (setting [19]), 6.54.
With WEVGKPRPPL, the pKd in experiment [2] (setting [18]) was not above 4.22; in experiment [3] (setting [18]), 5.23; in experiment [4] (setting [18]), 7.80; in experiment [5] (setting [18]), 7.73; in [6] (setting [18]), not above 4.62; in experiment [7] (setting [18]) it was 5.14.
